From patent US20250336476A1 (published 2025)

Target: RBD (SARS-CoV-2, UniProt P0DTC2 319-541)
Assay: ELISA

| Binder | EC50 |
| --- | --- |
| Nb21 WT (VHH) VHH: QVQLVESGGGLVQAGGSLRLSCAVSGLGAHRVGWFRRAPGKEREFVAAIGANGGNTNYLDSVKGRFTISRDNAKNTIYLQMNSLKPQDTAVYYCAARDIETAEYTYWGQGTQVTVSS | 1.69 nM |

Target: RBD (SARS-CoV-2 spike) (SARS-CoV-2, UniProt P0DTC2 319-541)
Assay: ELISA

| Binder | EC50 |
| --- | --- |
| humanized Nb21 (hNb21) (VHH) VHH: QVQLVESGGGLVQPGGSLRLSCAASWFRRAPGKEREFVAYADSVKGRFTISRDNAKNTLYLQMNSLRAEDTAVYYCAAWGQGTLVTVS | 1.34 nM |
| Nb17 (VHH) VHH: HVQLVESGGGLVQAGGSLRLSCAASGSIFSSNAMSWYRQAPGKQRELVASITSGGNADYADSVKGRFTISRDKNTVYPEMSSLKPADTAVYYCHAVGQEASAYAPRAYWGQGTQVTVS | 0.97 nM |
| Nb34 (VHH) VHH: DVQLVESGGGLVQAGGSLRLSCAASGFTFSNYVMYWGRQAPGKGREWVSGIDSDGSDTAYASSVKGRFTISRDNAKNTLYLQMNNLKPEDTALYYCVKSKDPYGSPWTRSEFDDYWGQGTQVTVS | 0.53 nM |
| Nb95 (VHH) VHH: QVQLVESGGGLVQAGGSLRLSCAASGRTFSSYSMGWFRQAQGKEREFVATINGNGRDTYYTNSVKGRFTISRDDATNTVYLQMNSLKPEDTAIYYCAADKDVYYGYTSFPNEYEYWGQGTQVTVS | 3.77 nM |
| Nb9 (VHH) VHH: HVQLVESGGGLVQTGGSLRLSCAFSGYTFSTFPTAWFRQAPGKEREFVAGIRWNGGSRDYTEYADFVKGRFTISRDNAKNMIYLQMISLKPEDTALYYCAASHGVVDGTSVNGYRYWGQGTQVTVS | 2.76 nM |
| Nb64 (VHH) VHH: QVQLVESGGGLVQAGGSLRLSCAVSGRTFSIAGMGWFRQAPGKDREFLGGITWNDGTTWYADSVKGRFTISRDNAKNMLSLRMNSLKPEDTAVYYCAAGPRLGSTPRAYDYWGQGTQVTVS | 1.22 nM |
| Nb105 (VHH) VHH: HVQLVESGGGLVQAGGSLRLSCAVSGRTFSTYGMAWFRQAPGKERDFVATITRSGETTLYADSVKGRFTISRDNAKNTVYLQMNSLKIEDTAVYYCAVRRDSSWGYSRDLFEYDYWGQGTQVTVS | 1.69 nM |
| Nb93 (VHH) VHH: EVQLVESGGGLVQPGGSLRLSCAASGFTFSSYAMSWVRQAPGKGREWVAGITPGSGTFYADSVKGRFTISRDNAKNTLSLEINSLKPEDTALYYCAKCRQEFSWDFSSRDPDDFDYWGQGTQVTVS | 1.13 nM |
